13 sequences from the DeepSol protein solubility set can be followed below.

A short description of the data set: soluble on expression in E. coli; label from the status in PepcDB or PDB records.
Turning to “MLHEIPKEEILEKLKNIGAKKVLIQSPEGLRREAEELAEFLEKNEIEVILHGEINYGACDPADHEARLLGCDALIHLGHSFMMLSLEVPTIFVPAFAKVNVVEALKKNLHEIKKLGKKIIVTTTAQHIHQLERAIEYLKSQGFEPVVGRGDNRVSWPSQVLGCNFSVAKVEGDGILFIGSGTFHPLGLALATGKRVLAVNPYSGDCQWINELAERFIRKRWAQIAKAMDAKRFGVVISTKRGQLRLNEAKRIIKLLKDHGREAKLIAMNDISYSKLEGFSFDAYVIVACPRVPIDDYENWRKPVLTPREVEILLGLREEYIFDEIPGGVREKDEPLGISLHSTRLEHHHHHH”, the “soluble on expression in E. coli” value is on record as “not soluble”.
For the sequence “MLHRIANGIIEEAAENGCTIIAFEELSGTRDRLPEASWGHKWAFERLYEYVKYKSELHGIDVAVVDPENTSRRCSHCGFTHPDNRDSEAFVCLKCGYENHADYNAAKNIGLRYLRRNQTGDGGGAPVGVRLNRGTLNANGEYETPAGDSGQSGSPRESPTLNEARSSDRAKLEHHHHHH”, the “soluble on expression in E. coli” value is “not soluble”.
Turning to “MLILRKDSKFDRKSIEELKELAEVLYNPVKTIVQIRKADPKYQIGSGLVERIAENIKEENIEIVIVGNILTPSQKYNLAKKFKVEVIDKIELVLRIFYKHARTKEAQLQVRLAELQYELPRAREKVRLAKMGEQPGFGGYGDYEVEKYYQKVKREIATIKRKLEKLREHRRVARKGRAKFDTVGLIGYTNAGKTSLLNALTGENKESKNQVFTTLTTTTRAIKGIKRKILVTDTVGFIDDLPPFMIEAFLSTIEESADSDLILIVVDASDDIEEIKRKLKVNHEILSKINCKAPIITVFNKVDKITKEKKRKILEELDRYIVNPIFVSAKYDINMDLLKEMIIEHLNLSIGTIETDNPRLISYLYENTEIIEDILEDNKHIITFRAKERDVNRILKLHKSAVLEHHHHHH”, the “soluble on expression in E. coli” value was “not soluble”.
For “MLINARISVRSYPKYQRFSFFYALLFKRIDLILAQSKEDKKRLLNLGAKKVVDFLNIKRFSKPVITSFYPKNPSALNIVLASTHEGEEELGLKAFLELKKTFKNARLIVVPRHPERFKSVQDLLQNTLKTTPFSWECFSSKGFVECDILLVDSLGELNNFYQIADIVILGGSFVKMGGHNPLEPAFFNARLITGEYIFNQVALFELVKPYKIVPKEDLLDALLDYKNLGMARFLENGHDLNELLAFIKHLEHHHHHH”, the “soluble on expression in E. coli” value was “soluble”.
Regarding “MLIYHNCTTDRTMRKMRHEWGTFGIRIADAFSTMNIDVFDKGEKYNGNEKVELTTTVKNYKPKNNTRKWPAVEAKYLGVVYDNHNKLPKNCEGQKVEVQMMKIDKEQYGWVITDILNE”, the “soluble on expression in E. coli” value is listed as “not soluble”.
With “MLKAMEHPAYSQLRPVTPSAGVVLCPNPGYSSLEGTNSWVVRAEGDRCSIVIDPGPADEGHLNVLHGKAETVGLVLLTHRHHDHADGAERFRQLTGAAIRAQQAPYCHGGDVLRDGEIIAIDGVTPQLEVVFTPGHTSDSVCFFVWSGVPHESNLEGIITGDTIAGRHTTMISETDGDLGQYLNTLALLEKRGKGIALLPGHGPDGDDVASFAHWYIERRMQRLEQIKEAIAQRGADVPIKELIDAVYDDVDPVLRGAAEQSTRVALRYLAQQQ”, the “soluble on expression in E. coli” value is “not soluble”.
Consider “MLKGIDLTYPQLTYLPETGILYDNTYNEKTVPIISGGGSGHEPAHVGYVGSGMLAAAVTGPLFIPPKSKNILKAIRQVNSGKGVFVIIKNFEADLKEFNEAIKEARTEGIDVRYIVSHDDISVNAYNFHKRHRGVAGTILLHKILGAFAKEGGSIDEIEQLALSLSPEIYTLGVALAPVHFPHQKTSFVLAEDEVSFGIGIHGEPGYRVEKFEGSERIAIELVNKLKAEINWQKKANKNYILLVNGLGSTTLMELYSFQYDVMRLLELEGLSVKFCKVGNLMTSCDMSGISLTLCSVKDPKWLDYLNVPTGAFAWLEHHHHHH”, for which the “soluble on expression in E. coli” value is “not soluble”.
As to “MLKGQRTWVFANKPAIIATAAVGGPFEANGRLAEDFDLLHEDLWLGEESYEKAHRVLMEEAAFQAMEKAGLEKEKVQFLIAGDLINQMTPTSFAARTLGMPYLGVFGACSTSMEGLALSAFITNYGGADYILTGASSHNAAVEKQFRYPTEYGGQKPPTAQWTVTGAGVAIVSPKGDGPRVTAATIGRVVDMGLADPFNMGGAMAPAAVDTIEAHLRDMQIDASYYDLIVTGDLGRIGRQVSLDLLRQHGIDIDEECYQDCGLLIYRDGQPVLSGASGAACSAVVVYGHLIKRMRRGELKRILAVATGALLSPLSFQQNETIPCIAHAVAIEYGGEA”, the “soluble on expression in E. coli” value is recorded as “not soluble”.
As for “MLKIADKTFQSRLFTGTGKFSNRHVMAEALAASGSELVTMALKRIDLAQRDDDILAPLLSMQMNLLPNTSGAKNAADAVYAAELAREALATNWLKLEIHPDPKYLMPDPIETLLAAEQLVKQGFIVLPYCHADPVLCKRLEEVGCAAVMPLGSPIGSNQGLASKTFLEIIIDQAKVPVIVDAGIGSPSDAAQAMELGADAVLVNTAIAAAHDPIAMAKAFKLAVEAGRMAYESGLPSRVKMATASSPLTGFLDFVS”, the “soluble on expression in E. coli” value is reported as “not soluble”.
As for “MLKIGVITMALLSFLNAGWLGNLFDNTPTPYYTMPIDLSKTGNVAETDIRIDKEYRTGIALNYDFRRQKNKMTRNEYNNIKVFFGNSYTSGTAIPVKLKIEKIMDKNETTILNDIIIVDNNGGHELHSSLIKEIALSQGKYRIKVETTEDFSELSDLSVLVEIYYIRAPK”, the “soluble on expression in E. coli” value is “not soluble”.
For “MLKINVKYQLKNTLIRINIDDTEPKIYAVRGPSGIGKTTVLNMIAGLRKADEAIIEVNGQLLTDTAKNVNVKIQQRRIGYLFQDYQLFPNMTVYKNITFMAEPSEHIDQLIQTLNIDHLMKQYPMTLSGGEAQRVALARALSTKPDLILLDEPFSSLDDTTKDESITLVKRIFNEWQIPIIFVTHSNYEAEQMAHEIITIG”, the “soluble on expression in E. coli” value is recorded as “not soluble”.
For “MLKSGRLNFLKLNINSRLLYSTNPQLTKKVIGIDLGTTNSAVAYIRDSNDKKSATIIENDEGQRTTPSIVAFDVKSSPQNKDQMKTLVGMAAKRQNAINSENTFFATKRLIGRAFNDKEVQRDMAVMPYKIVKCESNGQAYLSTSNGLIQSPSQIASILLKYLKQTSEEYLGEKVNLAVITVPAYFNDSQRQATKDAGKLAGLNVLRVINEPTAAALSFGIDDKRNNGLIAVYDLGGGTFDISILDIEDGVFEVRATNGDTHLGGEDFDNVIVNYIIDTFIHENPEITREEITKNRETMQRLKDVSERAKIDLSHVKKTFIELPFVYKSKHLRVPMTEEELDNMTLSLINRTIPPVKQALKDADIEPEDIDEVILVGGMTRMPKIRSVVKDLFGKSPNSSVNPDETVALGAAIQGGILSGEIKNVLLLDVTPLTLGIETFGGAFSPLIPRNTTVPVKKTEIFSTGVDGQAGVDIKVFQGERGLVRNNKLIGDLKLTGITPLPKGIPQIYVTFDIDADGIINVSAAEKSSGKQQSITVIPNSGLSEEEIAKLIEEANANRAQDNLIRQRLELISKADIMISDTENLFKRYEKLISSEKEYSNIVEDIKALRQAIKNFKANENDMSIDVNGIKKATDALQGRALKLFQSATKNQQNQGK”, the “soluble on expression in E. coli” value was “not soluble”.
With “MLKVSDLLTLEELPGITLVAGHKNQDQPILKVNILENPDILDWLTAGELLLTTGYIFKDDRKLQKNFLKELAKHHCAALGFKTQRYFEEVPPDLIKLADEMNVPILAIPYNYTFSQIADVLKSRVTLEQFDMNAQETALHNKIYQILETGSSSFHLLQDLAETIQNPVLLLNDHFEGVNFFDLPKNPIRISSILEDRQETSEFQKQLLEQSHPLLRFYQEPIHLQLKLQNQVVPIEIYPIKKKNVILYYLLVWNTLAPLRPVDVAHFKITAHYLLLQLQLEYSRKFEEYQQRNELFFKLFAHEKRDQAVFQQFQQYYRLAIDKPYAILLISLTLNERQRQERMSILGNQLNQVILGDKQKIVCIEIDSSFVLLVENPPEKEGDYLKMMQRLAQSSINQLMKVQEDVELFLTIGPKIQGLTQIHESYQQAIDVLAFQRQFVAEKPEMRIASYSNFHFRQTLQRYFLEEGQATLRKKYLQPLQKSDQQQHTDFVHTLNVYFQSKRNLSQTAKKLFIHRNTLLQRLEKIEQLVLLDFDKEVDLLALEVALFVGT”, the “soluble on expression in E. coli” value is reported as “not soluble”.
